Test results taken from patent US20180328929A1 (BIOMERIEUX, published 2018).
Substitutions are numbered along the chain they refer to.

B1: ORF2-MUT (ORF2 amino acids 394-660 with cysteines 627, 630 and 638 changed to serine, N-terminal 8-his tag) (other)
chain: HHHHHHHHQLFYSRPVVSANGEPTVKLYTSVENAQQDKGIAIPHDIDLGESRVVIQDYDNQHEQDRPTPSPAPSRPFSVLRANDVLWLSLTAAEYDQSTYGSSTGPVYVSDSVTLVNVATGAQAVARSLDWTKVTLDGRPLSTTQQYSKTFFVLPLRGKLSFWEAGTTKAGYPYNYNTTASDQLLVENAAGHRVAISTYTTSLGAGPVSISAVAVLAPHSALALLEDTMDYPARAHTFDDFSPESRPLGLQGSAFQSTVAELQRLKMKVGKTREL
notes: Made in E. coli; also called p-ORF2-MUT; construction according to the invention
B2: ORF2-REF (ORF2 amino acids 394-660 of hepatitis E virus isolate Human/China/HeBei/1987, N-terminal 8-his tag) (other)
chain: B1 chain with S242C, S245C, S253C
notes: Made in E. coli, dissolved from inclusion bodies in urea, Ni-NTA purified, dialyzed; Heterogeneous: covalent dimers (major form), non-covalent dimers, high-molecular-weight forms and aggregates; also called p-ORF2.1 polypeptide

Experiments:
[1] = target: the molecule itself; test: SDS-PAGE, non-heated (self-association)
[2] = target: the molecule itself; test: SDS-PAGE (self-association)

Protein	binding result [1]	binding result [2]
B1	binds	–
B2	–	binds
